From article PMC3918441 come the findings set out here.

The test concerns the target KDM5B PHD1 finger (wild type) (human). The experiment in a line: other fluorescence titration.

For “H3K4me0 peptide (aa 1-12 of H3) (from UniProt P68431 2-13)”, the equilibrium dissociation constant (Kd) was 1.5 µM.

One may read the Kd as the free concentration of one partner at which half of the binding sites on the other are occupied at equilibrium, for simple one-to-one binding. A high value points to weaker binding.
